According to US20220204580A1 (AstraZeneca / MedImmune, published 2022):
Numbered stars: 1 amine (or outer) side, 2 acyl side, 3 side chain; on linkers, the order of the positions; unused ones are H or OH. Bridge positions count the residues as written; N and C are the ends. Square brackets hold non-standard residues; d marks the D form. Side chains are listed from the residue outwards. Ends that are not written are not given here. * marks the point of attachment. C20 diacid = O=C(O)CCCCCCCCCCCCCCCCCCC(=O)*; C18 diacid = O=C(O)CCCCCCCCCCCCCCCCC(=O)*; γGlu = O=C(O)[C@H](CCC(=O)[*:2])N[*:1]; Aib = CC(C)(N)C(=O)O

T1: human amylin receptor (calcitonin receptor co-expressed with receptor activity modifying protein, RAMP3) (human, UniProt P30988 25-474; O60896 24-148)
T1 sequence (looked up) 1: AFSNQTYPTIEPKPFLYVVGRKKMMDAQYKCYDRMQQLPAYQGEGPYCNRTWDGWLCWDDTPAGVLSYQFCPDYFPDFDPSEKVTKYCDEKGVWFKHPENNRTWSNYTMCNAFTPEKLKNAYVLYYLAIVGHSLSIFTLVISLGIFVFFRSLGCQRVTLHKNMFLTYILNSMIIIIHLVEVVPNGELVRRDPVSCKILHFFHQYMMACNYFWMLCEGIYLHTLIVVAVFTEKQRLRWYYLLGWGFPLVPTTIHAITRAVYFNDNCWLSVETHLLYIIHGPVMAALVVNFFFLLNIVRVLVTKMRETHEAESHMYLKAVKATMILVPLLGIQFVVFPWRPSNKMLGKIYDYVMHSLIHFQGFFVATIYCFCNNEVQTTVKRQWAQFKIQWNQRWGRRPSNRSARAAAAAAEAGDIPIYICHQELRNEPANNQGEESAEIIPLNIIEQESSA
T1 sequence (looked up) 2: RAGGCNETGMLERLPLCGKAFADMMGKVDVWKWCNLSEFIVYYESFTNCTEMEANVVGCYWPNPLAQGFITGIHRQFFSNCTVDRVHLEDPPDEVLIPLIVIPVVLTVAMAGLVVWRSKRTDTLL

T2: human calcitonin receptor (human, UniProt P30988 25-474)
T2 sequence (looked up): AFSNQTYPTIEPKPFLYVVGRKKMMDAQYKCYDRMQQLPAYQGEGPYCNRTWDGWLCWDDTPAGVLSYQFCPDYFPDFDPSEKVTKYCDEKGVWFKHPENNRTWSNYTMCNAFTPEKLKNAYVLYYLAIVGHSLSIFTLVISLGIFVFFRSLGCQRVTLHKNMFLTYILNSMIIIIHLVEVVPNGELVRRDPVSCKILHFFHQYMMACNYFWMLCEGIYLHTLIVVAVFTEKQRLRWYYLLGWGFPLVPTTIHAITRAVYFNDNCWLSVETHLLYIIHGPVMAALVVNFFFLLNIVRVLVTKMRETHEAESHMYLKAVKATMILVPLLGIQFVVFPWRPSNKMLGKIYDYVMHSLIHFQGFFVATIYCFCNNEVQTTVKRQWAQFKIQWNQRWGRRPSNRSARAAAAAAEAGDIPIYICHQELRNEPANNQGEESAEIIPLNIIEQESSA

T3: rat amylin receptor (calcitonin receptor co-expressed with receptor activity modifying protein, RAMP3) (rat, UniProt P32214 25-516; Q9JJ73 23-147)
T3 sequence (looked up) 1: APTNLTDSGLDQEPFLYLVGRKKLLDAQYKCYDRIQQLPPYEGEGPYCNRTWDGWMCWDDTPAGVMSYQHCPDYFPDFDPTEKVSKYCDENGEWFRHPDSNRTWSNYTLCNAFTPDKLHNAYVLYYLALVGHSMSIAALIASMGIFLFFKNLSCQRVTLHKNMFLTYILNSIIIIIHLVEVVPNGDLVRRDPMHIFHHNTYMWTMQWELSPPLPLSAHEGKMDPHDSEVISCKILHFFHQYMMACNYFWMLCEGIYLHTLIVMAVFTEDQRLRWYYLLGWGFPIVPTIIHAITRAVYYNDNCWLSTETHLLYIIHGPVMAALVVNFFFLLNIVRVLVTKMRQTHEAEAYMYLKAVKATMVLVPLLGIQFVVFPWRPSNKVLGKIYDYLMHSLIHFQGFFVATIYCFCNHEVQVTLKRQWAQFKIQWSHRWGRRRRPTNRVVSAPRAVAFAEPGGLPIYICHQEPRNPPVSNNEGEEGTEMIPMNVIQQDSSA
T3 sequence (looked up) 2: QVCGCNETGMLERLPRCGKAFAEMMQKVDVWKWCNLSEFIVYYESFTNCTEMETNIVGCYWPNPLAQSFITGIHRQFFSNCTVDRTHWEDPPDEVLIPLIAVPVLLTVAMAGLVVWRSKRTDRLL

T4: rat calcitonin receptor (rat, UniProt P32214 25-516)
T4 sequence (looked up): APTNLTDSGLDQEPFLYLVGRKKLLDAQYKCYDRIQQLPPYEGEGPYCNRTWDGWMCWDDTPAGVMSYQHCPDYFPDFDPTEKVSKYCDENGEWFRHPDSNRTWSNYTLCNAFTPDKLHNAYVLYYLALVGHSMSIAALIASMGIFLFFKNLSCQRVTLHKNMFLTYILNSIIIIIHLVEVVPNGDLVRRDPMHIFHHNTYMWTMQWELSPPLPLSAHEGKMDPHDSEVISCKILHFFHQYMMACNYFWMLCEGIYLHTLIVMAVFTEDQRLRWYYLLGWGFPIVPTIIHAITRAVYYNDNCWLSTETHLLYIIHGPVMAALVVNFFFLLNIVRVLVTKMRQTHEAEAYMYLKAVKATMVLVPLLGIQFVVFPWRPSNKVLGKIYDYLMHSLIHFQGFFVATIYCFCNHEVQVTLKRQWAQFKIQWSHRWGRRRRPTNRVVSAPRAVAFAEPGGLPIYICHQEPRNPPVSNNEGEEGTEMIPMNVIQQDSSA


Tests used:
Assay in all cases: cell-based or functional assay
[1] = biological target: T1, human amylin receptor (calcitonin …)
[2] = biological target: T2, human calcitonin receptor
[3] = biological target: T3, rat amylin receptor (calcitonin …)
rat calcitonin receptor = biological target: T4, rat calcitonin receptor

| EC50 (cAMP production) [1] [pM] | Ratio (EC50 hCTR / EC50 hAMYR3) [1] | EC50 (cAMP production) [2] [nM] | EC50 (cAMP production) [3] [pM] | EC50 (cAMP production) (rat calcitonin receptor) [nM] | Binder |
| --- | --- | --- | --- | --- | --- |
| 1210 | 8 | 9.56 | 23.7 | 9.05 | K([γGlu-γGlu-C20 diacid])CNTATCATQRLAEFLRHSSNNFGPILPPTNVGSNTY-NH2 (disulfide 2-7; N-terminus assumed; SMILES CC[C@H](C)[C@H](NC(=O)[C@@H]1CCCN1C(=O)CNC(=O)[C@H](Cc1ccccc1)NC(=O)[C@H](CC(N)=O)NC(=O)[C@H](CC(N)=O)NC(=O)[C@H](CO)NC(=O)[C@H](CO)NC(=O)[C@H](Cc1c[nH]cn1)NC(=O)[C@H](CCCNC(=N)N)NC(=O)[C@H](CC(C)C)NC(=O)[C@H](Cc1ccccc1)NC(=O)[C@H](CCC(=O)O)NC(=O)[C@H](C)NC(=O)[C@H](CC(C)C)NC(=O)[C@H](CCCNC(=N)N)NC(=O)[C@H](CCC(N)=O)NC(=O)[C@@H](NC(=O)[C@H](C)NC(=O)[C@@H]1CSSC[C@H](NC(=O)[C@@H](N)CCCCNC(=O)CC[C@H](NC(=O)CC[C@H](NC(=O)CCCCCCCCCCCCCCCCCCC(=O)O)C(=O)O)C(=O)O)C(=O)N[C@@H](CC(N)=O)C(=O)N[C@@H]([C@@H](C)O)C(=O)N[C@@H](C)C(=O)N[C@@H]([C@@H](C)O)C(=O)N1)[C@@H](C)O)C(=O)N[C@@H](CC(C)C)C(=O)N1CCC[C@H]1C(=O)N1CCC[C@H]1C(=O)N[C@H](C(=O)N[C@@H](CC(N)=O)C(=O)N[C@H](C(=O)NCC(=O)N[C@@H](CO)C(=O)N[C@@H](CC(N)=O)C(=O)N[C@H](C(=O)N[C@@H](Cc1ccc(O)cc1)C(N)=O)[C@@H](C)O)C(C)C)[C@@H](C)O) [Peptide 116 (SEQ ID NO: 116)] |
| 553 | 10.4 | 5.75 | 11.2 | 2.87 | K([γGlu-C18 diacid])KCNTATCATQRLANFL[Aib]HSSNNFGPILPPTNVGSNTY-NH2 (disulfide 3-8; N-terminus assumed; SMILES CC[C@H](C)[C@H](NC(=O)[C@@H]1CCCN1C(=O)CNC(=O)[C@H](Cc1ccccc1)NC(=O)[C@H](CC(N)=O)NC(=O)[C@H](CC(N)=O)NC(=O)[C@H](CO)NC(=O)[C@H](CO)NC(=O)[C@H](Cc1c[nH]cn1)NC(=O)C(C)(C)NC(=O)[C@H](CC(C)C)NC(=O)[C@H](Cc1ccccc1)NC(=O)[C@H](CC(N)=O)NC(=O)[C@H](C)NC(=O)[C@H](CC(C)C)NC(=O)[C@H](CCCNC(=N)N)NC(=O)[C@H](CCC(N)=O)NC(=O)[C@@H](NC(=O)[C@H](C)NC(=O)[C@@H]1CSSC[C@H](NC(=O)[C@H](CCCCN)NC(=O)[C@@H](N)CCCCNC(=O)CC[C@H](NC(=O)CCCCCCCCCCCCCCCCC(=O)O)C(=O)O)C(=O)N[C@@H](CC(N)=O)C(=O)N[C@@H]([C@@H](C)O)C(=O)N[C@@H](C)C(=O)N[C@@H]([C@@H](C)O)C(=O)N1)[C@@H](C)O)C(=O)N[C@@H](CC(C)C)C(=O)N1CCC[C@H]1C(=O)N1CCC[C@H]1C(=O)N[C@H](C(=O)N[C@@H](CC(N)=O)C(=O)N[C@H](C(=O)NCC(=O)N[C@@H](CO)C(=O)N[C@@H](CC(N)=O)C(=O)N[C@H](C(=O)N[C@@H](Cc1ccc(O)cc1)C(N)=O)[C@@H](C)O)C(C)C)[C@@H](C)O) [Peptide 129 (SEQ ID NO: 129)] |

The next lines start with the binder.

| Binder | EC50 (cAMP production) [1] [pM] | Ratio (EC50 hCTR / EC50 hAMYR3) [1] | EC50 (cAMP production) [2] [nM] | EC50 (cAMP production) [3] [pM] | EC50 (cAMP production) (rat calcitonin receptor) [nM] |
| --- | --- | --- | --- | --- | --- |
| {C18 diacid}-[γGlu]KCNTATCATQRLANFLVHSSNNFGPILPPTNVGSNTY-NH2 (disulfide 3-8) [Peptide 3 (SEQ ID NO: 3)] | 246 | 5 | 1.35 | 2.9 | 0.186 |
| K([γGlu-γGlu-C20 diacid])CNTATCATQRLANFLVHSSNNFGPILPPTNVGSRTY-NH2 (disulfide 2-7; N-terminus assumed; SMILES CC[C@H](C)[C@H](NC(=O)[C@@H]1CCCN1C(=O)CNC(=O)[C@H](Cc1ccccc1)NC(=O)[C@H](CC(N)=O)NC(=O)[C@H](CC(N)=O)NC(=O)[C@H](CO)NC(=O)[C@H](CO)NC(=O)[C@H](Cc1c[nH]cn1)NC(=O)[C@@H](NC(=O)[C@H](CC(C)C)NC(=O)[C@H](Cc1ccccc1)NC(=O)[C@H](CC(N)=O)NC(=O)[C@H](C)NC(=O)[C@H](CC(C)C)NC(=O)[C@H](CCCNC(=N)N)NC(=O)[C@H](CCC(N)=O)NC(=O)[C@@H](NC(=O)[C@H](C)NC(=O)[C@@H]1CSSC[C@H](NC(=O)[C@@H](N)CCCCNC(=O)CC[C@H](NC(=O)CC[C@H](NC(=O)CCCCCCCCCCCCCCCCCCC(=O)O)C(=O)O)C(=O)O)C(=O)N[C@@H](CC(N)=O)C(=O)N[C@@H]([C@@H](C)O)C(=O)N[C@@H](C)C(=O)N[C@@H]([C@@H](C)O)C(=O)N1)[C@@H](C)O)C(C)C)C(=O)N[C@@H](CC(C)C)C(=O)N1CCC[C@H]1C(=O)N1CCC[C@H]1C(=O)N[C@H](C(=O)N[C@@H](CC(N)=O)C(=O)N[C@H](C(=O)NCC(=O)N[C@@H](CO)C(=O)N[C@@H](CCCNC(=N)N)C(=O)N[C@H](C(=O)N[C@@H](Cc1ccc(O)cc1)C(N)=O)[C@@H](C)O)C(C)C)[C@@H](C)O) [Peptide 114 (SEQ ID NO: 114)] | 1320 | 12 | 15.8 | 12.2 | 4.87 |
| K([γGlu-γGlu-C20 diacid])CNTATCATQRLANFLVHSSPNFPAILSPTNVGSNTY-NH2 (disulfide 2-7; N-terminus assumed; SMILES CC[C@H](C)[C@H](NC(=O)[C@H](C)NC(=O)[C@@H]1CCCN1C(=O)[C@H](Cc1ccccc1)NC(=O)[C@H](CC(N)=O)NC(=O)[C@@H]1CCCN1C(=O)[C@H](CO)NC(=O)[C@H](CO)NC(=O)[C@H](Cc1c[nH]cn1)NC(=O)[C@@H](NC(=O)[C@H](CC(C)C)NC(=O)[C@H](Cc1ccccc1)NC(=O)[C@H](CC(N)=O)NC(=O)[C@H](C)NC(=O)[C@H](CC(C)C)NC(=O)[C@H](CCCNC(=N)N)NC(=O)[C@H](CCC(N)=O)NC(=O)[C@@H](NC(=O)[C@H](C)NC(=O)[C@@H]1CSSC[C@H](NC(=O)[C@@H](N)CCCCNC(=O)CC[C@H](NC(=O)CC[C@H](NC(=O)CCCCCCCCCCCCCCCCCCC(=O)O)C(=O)O)C(=O)O)C(=O)N[C@@H](CC(N)=O)C(=O)N[C@@H]([C@@H](C)O)C(=O)N[C@@H](C)C(=O)N[C@@H]([C@@H](C)O)C(=O)N1)[C@@H](C)O)C(C)C)C(=O)N[C@@H](CC(C)C)C(=O)N[C@@H](CO)C(=O)N1CCC[C@H]1C(=O)N[C@H](C(=O)N[C@@H](CC(N)=O)C(=O)N[C@H](C(=O)NCC(=O)N[C@@H](CO)C(=O)N[C@@H](CC(N)=O)C(=O)N[C@H](C(=O)N[C@@H](Cc1ccc(O)cc1)C(N)=O)[C@@H](C)O)C(C)C)[C@@H](C)O) [Peptide 115 (SEQ ID NO: 115)] | 703 | 11 | 7.65 | 22.6 | 22.6 |
